Target: Acanthamoeba actin (Acanthamoeba)

Q: For Acanthamoeba actin (natural protein), which kon is on record?
A: The kon was 7.8e+06 M⁻¹ s⁻¹.
